Values quoted from earlier work, collected in patent US20010039026A1, “Assay method” (priority 2000, published 2001).

Legend:
[1] = tested on: primary, nonsyncytium-inducing (NSI) HIV-1 strains; settings: primary NSI HIV-1 strains
[2] = target: T1, CCCKR5 (Homo sapiens, UniProt P51681); settings: transfected CHO-K1 cells
T1 construct: expressed in transfected cells; host or cells: CHO-K1 (stably transfected)

[3] = tested on: env-mediated cell-cell fusion

T1 sequence (P51681 whole entry): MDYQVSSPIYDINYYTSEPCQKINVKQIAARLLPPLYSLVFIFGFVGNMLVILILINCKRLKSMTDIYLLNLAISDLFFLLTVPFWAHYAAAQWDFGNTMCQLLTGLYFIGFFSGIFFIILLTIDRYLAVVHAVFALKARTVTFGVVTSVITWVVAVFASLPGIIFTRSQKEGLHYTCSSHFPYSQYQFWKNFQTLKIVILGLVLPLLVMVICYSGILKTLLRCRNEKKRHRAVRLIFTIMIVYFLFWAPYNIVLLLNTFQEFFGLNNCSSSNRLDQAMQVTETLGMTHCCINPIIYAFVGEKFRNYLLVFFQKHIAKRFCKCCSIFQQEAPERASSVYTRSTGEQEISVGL

B1: MIP-1-β: macrophage inflammatory protein, β-chemokine ligand of CCR5 (protein, UniProt P13236 24-92, looked up)
C-C motif chemokine 4: APMGSDPPTACCFSYTARKLPRNFVVDYYETSSLCSQPAVVFQTKRSKQVCADPSESWVQEYVYDLELN
[1]
  inhibition of infection of CD4(+) cells at the virus entry stage: inhibit infection
[2]
  agonist activity at CCCKR5: active at physiologic concentrations
[3]
  block of env-mediated cell-cell fusion: block env-mediated cell-cell fusion
